Measurements from publication doi:10.1101/2021.04.24.441256.

Target: the engineered RGA5_HMAs
Assay: SPR

6xHis-tagged AVR-PikD (from UniProt C4B8B8 22-113) (natural protein)
Kd: 0.5 to 1.6 nM
